Test: soluble on expression in E. coli; label from the status in PepcDB or PDB records

## MHGVDEDDLERQRIEKIKEVQEAVAKLTGAKFQKLENLQRMERMLNKEIELLQNATRKALETHLVTCNYAFYKSIIDEVEEMENATAVLKTFKRDNVSVTVDIVMKEPNVWIKLVNRPAKTVLIEYRDGKRNGDVIAQIKQHLFVSRRFNRPQIRIYFRNGVLAEMAQKLIRHGIVVIGEHVDKSDPSLRGKWNEELIERLGEEEDSDWDEVDEDAASIPTLPSSQSQSESTLPRLNLDISAVMLLVSNMCEPGGVNYQFKEEMINKHVECERLKPAKAEVLEKLKGHHLIMCELAYRRVAEIVKNVGGPTEKKRFEELSKTIERVQDQPSDEIGRVVKLRNIKGITSITKRVFSCAEVTKTTTVTANQKFLTHSRAKHIYFDVIEIPPRPLTEQKEATAKVI
  soluble on expression in E. coli: not soluble

## GPGSMNERLEDIALTLVGAGKGILAADESTATIGKRFESIGVECTEDNRRAYREMLFTAKEAMESAISGVILFDETLRQKASTGQMLTDLIRDAGAVPGIKVDTGAKPLAAFPQETITEGLDGLRERLKDYYTLGARFAKWRAVIAIDAQTLPTRGAISQNAQALARYAALCQEAGLVPIVEPEVLMDGPSRQHSITRCFEVTKVVLHTVFKELFEARVLFEGMILKPNMVIDGKDARIASVEEVAEKTVHVLKQTVPAAVPGIAFLSGGQTDEEATAHLSAMNALGALPWKLTFSYGRALQAAALKAWAGKNENIVVAQKAFCHRARMNHLAALGQWTKDQEKSCA
  soluble on expression in E. coli: soluble

## MPVEITVKELLEAGVHFGHERKRWNPKFARYIYAERNGIHIIDLQKTMEELERTFRFIEDLAMRGGTILFVGTKKQAQDIVRMEAERAGMPYVNQRWLGGMLTNFKTISQRVHRLEELEALFASPEIEERPKKEQVRLKHELERLQKYLSGFRLLKRLPDAIFVVDPTKEAIAVREARKLFIPVIALADTDSDPDLVDYIIPGNDDAIRSIQLILSRAVDLIIQARGGVVEPSPSYALVQEAEATETPEGESEVEA
  soluble on expression in E. coli: soluble

## MGENVLICLCGSVNSINISHYIIELKSKFDEVNVIASTNGRKFINGEILKQFCDNYYDEFEDPFLNHVDIANKHDKIIILPATSNTINKIANGICDNLLLTICHTAFEKLSIFPNMNLRMWENPVTQNNIRLLKDYGVSIYPANISESYELASKTFKKNVVAPEPYKVLEFI
  soluble on expression in E. coli: not soluble

## MGSDKIHHHHHHVPVADRVSKVDVIAFRLAAHHLDERLGEGGLLDAAGRCGIQNSPPGSALLALHARVRNLTQQQVAGAVAKEKSLLQTWCMRGSPFYFPALDAPVFTTGVLPPTEEAMRHLVVGVEPALDKLGISLTEAVELADAEIHEVLSGRRLAINELGAEIATRIARRLPKRQRDIWEDNGPYAPGQPLGEGVVHFCVRILTLQRVLCLAPRVGNQSPFVLVDEWLGDPIPDIDPELARAELLRRYLRCYGPSTRGDFASWAGVHAGDTGPWWNLVGTELTPVEFGGTSWILTEDLDALRSAPAPTGVRLLPPGDPYTQMRDRETIVDKKYHREVWRMAGGPGTVLAGGKITGTWRSRKSGRKLALTITTFGSLPDRDRTSLQGEAGQVAALRGASSVDVAFGTY
  soluble on expression in E. coli: not soluble

## MSAIEVKNLVKKFHGQTVLHGIDLEVKPGEVVAIIGPSGSGKTTLLRSINLLEQPEAGTITVGDITIDTARSLSQQKSLIRQLRQHVGFVFQNFNLFPHRTVLENIIEGPVIVKGEPKEEATARARELLAKVGLAGKETSYPRRLSGGQQQRVAIARALAMRPEVILFDEPTSALDPELVGEVLNTIRQLAQEKRTMVIVTHEMSFARDVADRAIFMDQGRIVEQGAAKALFADPEQPRTRQFLEKFLLQ
  soluble on expression in E. coli: soluble

## MTRQEELAAARAALHDLMTGKRVATVQKDGRRVEFTATSVSDLKKYIAELEVQTGMTQRRRGPAGFYV
  soluble on expression in E. coli: soluble

## MKFRRSGRLVDLTNYLLTHPHELIPLTFFSERYESAKSSISEDLTIIKQTFEQQGIGTLLTVPGAAGGVKYIPKMKQAEAEEFVQTLGQSLANPERILPGGYVYLTDILGKPSVLSKVGKLFASVFAEREIDVVMTVATKGIPLAYAAASYLNVPVVIVRKDNKVTEGSTVSINYVSGSSNRIQTMSLAKRSMKTGSNVLIIDDFMKAGGTINGMINLLDEFNANVAGIGVLVEAEGVDERLVDEYMSLLTLSTINMKEKSIEIQNGNFLRFFKDNLLKNGETESHHHHHH
  soluble on expression in E. coli: soluble

## MSLSQIAVRTFHDIRAALLARRELALLDVREEDPFAQAHPLFAANLPLSRLELEIHARVPRRDTPITVYDDGEGLAPVAAQRLHDLGYSDVALLDGGLSGWRNAGGELFRDVNVPSKAFGELVEAERHTPSLAAEEVQALLDARAEAVILDARRFDEYQTMSIPGGISVPGAELVLRVAELAPDPRTRVIVNCAGRTRSIIGTQSLLNAGIPNPVAALRNGTIGWTLAGQQLEHGQTRRFGAISQDTRKAAAQRARAVADRAGVERLDLAGLAQWQDEHDRTTYLLDVRTPEEYEAGHLPGSRSTPGGQLVQETDHVASVRGARLVLVDDDGVRANMSASWLAQMGWQVAVLDGLSEADFSERGAWSAPLPRQPRADTIDPTTLADWLGEPGTRVLDFTASANYAKRHIPGAAWVLRSQLKQALERLGTAERYVLTCGSSLLARFAVAEVQALSGKPVFLLDGGTSAWVAAGLPTEDGESLLASPRIDRYRRPYEGTDNPREAMQGYLDWEFGLVEQLGRDGTHGFFVIEGGSHHHHHH
  soluble on expression in E. coli: soluble

## MPLEASELKPTAGPLEASELKPTAGPLEASELKPTAGPLEASELKPTAGPLEASELKPTAGPLEASELKPTAGPLEASELKPTAGMYAFKAVKQYFYPSDNLKVLMHKFTDMVNFTINIMIEKNLTSRNSVSNEVYHKLKEYEIPSYYYIEAINKAVALVKTYRKRLKKKQKATVPHVEKPMLSTYYGFKIVGGNLMIPIANREYESIPLNAYVRDATSMVKVHSFALSAYTLSLTIGRDVDAIECTTTVGVDRNLRNATVGNEFHHEIYDLSNVVEIKQRYRKKESHFHRNDRRIREKILSKYGKRERNRVKQIMHETSKAIVSNASTRKEMIVLENIRGINKITKKGDGKGKDYRFLLKNAFPYGMLASQVMYKASWEGLPVIELTRKETRNTSRMCSVCGSLTRIEHGRILKCDSCGLEIDRDVNACINIAFRYRTCLKRSHKGLPGEAVKQSKDVEQMAGSQISTDILEHHHHHH
  soluble on expression in E. coli: soluble

## MGQNDLVKTLRMNYLFDFYQSLLTNKQRNYLELFYLEDYSLSEIADTFNVSRQAVYDNIRRTGDLVEDYEKKLELYQKFEQRREIYDEMKQHLSNPEQIQRYIQQLEDLE
  soluble on expression in E. coli: not soluble

## MSGVSLGRGQNANAAYLDNIKELGFKLVRRPTGGGALLHPEDNEITYSVVLSASNTIAKLSVDESAVEIAKGILYTLQILGENVDIRGLGDMKKHDLCYLRSGSSDVIVAGRKISGSAQVRDDKALLQHGTLLLRFEPEI
  soluble on expression in E. coli: soluble

## GPMSAQDVENAVEAALDPSVGPIIKQQATDFIGSLRSSSTGWKICHEIFSEKTKYKPSTRLICLQTLSEKVREWNNESNLLELQMIRDSVWSYIKELSFLDEPAYISNAVQHLLTLLFLQLYPSNWNDFFASLQGVIAASSQSEFSNFYLKVLLSIGDEIADSLVLKTDVQIQKDNLVKDAIRANDMSDIVSFVYEMMLAYSNAKNYGTVGLCLQVYAQWVSWININLIVNEPCMNLLYSFLQIEELRCAACETMTEIVNKKMKPLEKLNLLNILNLNLFFSKSQEQSTDPNFDEHVAKLINAQGVELVAIKSDPSELSPELKENCSFQLYNLFPYLIRYLSDDYDETSTAVFPFLSDLLVSLRKESSSKELSASLKEFLKSLLEAIIKKMKYDESQEWDDDPDSEEEAEFQEMRKKLKIFQDTINSIDSSLFSSYMYSAITSSLSTAATLSPENSWQLIEFALYETYIFGEGLRGPDAFFNEVDKSPTVLSQILALVTTSQVCRHPHPLVQLLYMEILVRYASFFDYESAAIPALIEYFVGPRGIHNTNERVRPRAWYLFYRFVKSIKKQVVNYTESSLAMLGDLLNISVSPVTDMDAPVPTLNSSIRNSDFNSQLYLFETVGVLISSGNLTPEEQALYCDSLINALIGKANAALSSDLSALENIISVYCSLMAIGNFAKGFPARGSEEVAWLASFNKASDEIFLILDRMGFNEDIRGAVRFTSGRIINVVGPDMLPKVPQLISILLNSIDMNELVDVLSFISQLIHIYKDNMMEITNRMLPTLLMRIFSSLSAAPQGTDDAVKQNDLRKSYISFILQLLNKGFGSILFTEENQVYFDPLINSILHFANLVGEPATQKSSIALVSKMVSLWGGKDGIAGFENFTLSLTPLCFEMPVNPNFNTRDGQSLVVLGELAGLQKIILEKLGDIYKSYLVTVYFPTVNFPDVMASEYLQALSNLDSRSFKQFFQKFIQALKSGNV
  soluble on expression in E. coli: soluble

## MSLSDFDYIQKNTPPEFPEKFKTALLPENIKKNRYSDVLANDDTRVKLNNNGYINANYIFQGRMIASQAPTIETIPDFLQMIIEQQVPIVIMLTKCKEKTRIKATPYWGYKSEGGKKVFGNYTVNTIDTLYDDVEEDKFMEDIQIRYLQIIYEDGVYSFIQIHYMGWPDFGVPLNPKDALDIVYIQYIIGTTSKFSNRNLVCVHCSAGVGRTGVYCLLSRIVEMVTYEILEKSETYSKQRSTSSSSKVREVEDRIEEILLSHPVISYEDCEVILPELVLSIRNERSKMVQTKEQYDFICETVNCFYEDALDSINQYYEVIDALTEGHHHHHH
  soluble on expression in E. coli: not soluble

## MGSDKIHHHHHHVQTPALIIVTGHPATGKTTLSQALATGLRLPLLSKDAFKEVMFDGLGWSDREWSRRVGATAIMMLYHTAATILQSGQSLIMESNFRVDLDTERMQNLHTIAPFTPIQIRCVASGDVLVERILSRIAQGARHPGHCDDRSPADLELVRSRGDIPPLPLGGPLLTVDTTFPEQIDMNAIVQWVRQHLQSGTAFL
  soluble on expression in E. coli: not soluble

## MKIEENMELPVILVTSGVLLPGASLKIPIRSKLNIQTIEKYLTRSSNDNYVVIAYKVSTDKVYEVATIAYVEKLFGWTFNSTVHYSLDVIGLHRANIDKLSLPTCIVSKVVDLNEAISNQNAIEKLVTGAKIIASNSLTDKFSREIYSLIDEKEYGKLADLCVSQMKFLGFMQLLEFLGANGTDARVEMCIKWMNEKKDANTLKLKVPNSLEASFPVDGKKRKIPNVKNQVEQLEEKLNAIEFSDEVSDRVYSELHRLKSMNAQQSEYNILMNWLELVSSLPWNTSTIDDIELHKARTILTESHEAMDDVKERVLEHLAVCKMNNSVKGMILCFTGPPGIGKTSIAKAIAESMGRKFQRVSLGGIRDESDIRGHRRTYVAAMPGRIIEALKTCKTNNPVFLLDEVDKLYSGNQGSPSAALLELLDPEQNSTFHDHYLNIPFDVSKIMFIATANDIDRLEPALRDRLEIIEMSGYSLKEKVKICENHLLTRQLTKHCISHDYVKLERQAIVAMIEEYTMEAGVRQLERNVGAICRNVALRLAEALNSDPGADVLPVMELPIQISASNIHKILKNKHMKRVKIVEKMRPLPAGVCFGLSVTTIGGRVMPIEASKSKGTGKIVTTGHLGKVLKESILVAKGWLSANSERLGLGTLEDQDIHVHLPAGAVNKDGPSAGTGLACALVSLATNIPLRSDAAVTGEISLTGHVLPIGGVKEKVLAAQREGLRRVVLPKSNEEEYLKMDEDIRLEMDVVLAETIEDVIGAMMDKSPVLAKL
  soluble on expression in E. coli: not soluble
